Experiments:
[1] = target: T1, Formylglycine Generating Enzyme (FGE) purified from bovine testis microsomes (reticuloplasm) (bovine, UniProt Q0P5L5 34-374, N-glycosylated (bound to Concanavalin A)); assay: affinity chromatography on peptide-derivatized Affigel 10, FGE activity from bovine testis
T1 construct: mature; Native enzyme at several stages of purification (microsome extract, MonoQ pool, ConA eluate); also called bovine FGE; FGE activity
T1 sequence (looked up): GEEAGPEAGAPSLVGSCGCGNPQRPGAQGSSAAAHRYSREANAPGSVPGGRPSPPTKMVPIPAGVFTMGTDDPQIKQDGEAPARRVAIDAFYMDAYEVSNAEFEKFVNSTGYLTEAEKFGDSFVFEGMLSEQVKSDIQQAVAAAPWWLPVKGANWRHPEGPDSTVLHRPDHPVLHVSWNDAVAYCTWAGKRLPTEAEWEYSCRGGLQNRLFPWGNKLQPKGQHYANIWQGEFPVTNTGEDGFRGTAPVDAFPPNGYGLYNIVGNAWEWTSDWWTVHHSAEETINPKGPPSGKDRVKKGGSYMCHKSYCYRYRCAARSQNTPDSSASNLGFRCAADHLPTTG
Description: (§1) For purification of FGE the soluble fraction (reticuloplasm) of bovine testis microsomes served as the starting material. The specific activity of FGE was 10-20 times higher than that in reticuloplasm from bovine pancreas microsomes (Fey et al., J. Biol. Chem., 2001, 276:47021-47028). Purification of FGE was achieved by a combination of four chromatographic steps. The first two steps were chromatography on a MonoQ anion exchanger and on Concanavalin A-Sepharose. At pH 8 the FGE activity bound to MonoQ and was eluted at 50-165 mM NaCl with 60-90% recovery. When this fraction was mixed with Concanavalin A-Sepharose, FGE was bound. 30-40% of the starting activity could be eluted with 0.5 M a-methyl mannoside. The two final purification steps were chromatography on affinity matrices derivatized with 16mer peptides. The first affinity matrix was Affigel 10 substituted with a variant of the ASA65-80 peptide, in which residues Cys69, Pro7l and Arg73, critical for FGly formation, were scrambled (scrambled peptide […] -SEQ ID NO:34). […] Chromatography on the scrambled peptide affinity matrix removed peptide binding proteins including chaperones of the endoplasmic reticulum. The second affinity matrix was Affigel 10 substituted with a variant of the ASA65-80 peptide, in which the Cys69 was replaced by a serine (Ser69 peptide […]-SEQ ID NO:35).

[2] = target: T1, Formylglycine Generating Enzyme (FGE) …; assay: affinity chromatography, peptide on Affigel 10, FGE from bovine testis
Description: as §1

[3] = target: T2, 23mer peptide P23 (MTDFYVPVSLCTPSRAALLTGRS)
T2 chain: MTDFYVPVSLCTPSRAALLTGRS

B1: scrambled peptide PVSLPTRSCAALLTGR (peptide)
peptide: PVSLPTRSCAALLTGR
notes: also called scrambled oligopeptide; variant of the ASA65-80 peptide in which residues Cys69, Pro71 and Arg73 were scrambled
binding result [1]: no binding

B2: wildtype ASA65-80 peptide (synthetic 16mer corresponding to arylsulfatase A residues 65-80) (peptide)
peptide: PVSLCTPSRAALLTGR
notes: They follow from P23 and from the Ser69 peptide, which is the Cys69 to Ser variant
binding result [2]: binds

B3: Ser69 peptide PVSLSTPSRAALLTGR (peptide)
peptide: PVSLSTPSRAALLTGR
notes: also called Ser69 oligopeptide; variant of the ASA65-80 peptide in which Cys69 was replaced by a serine
binding result [2]: binds

B4: Formylglycine Generating Enzyme (FGE) purified from bovine testis microsomes (reticuloplasm) (protein)
chain: T1 sequence (looked up)
conversion of P23 into a FGly containing derivative (MALDI-TOF) [3]: converted up to 95% of the peptide into a FGly containing derivative | km [3]: The km for P23 was 13 nM

Reference: patent US20040229250A1 (SHIRE HUMAN GENETIC THERAPIES, published 2004)
